These results are taken from paper PMC1287507, “Ankyrin-B Coordinates the Na/K ATPase, Na/Ca Exchanger, and InsP3 Receptor in a Cardiac T-Tubule/SR Microdomain” (PLoS Biology, 2005).

Bounds are passed on as bounds.

Assay [1] deals with 220-kDa ankyrin-B (endogenous, mouse) (mouse (endogenous in mouse heart and brain)). As to the kind of experiment: co-IP; detergent-soluble lysates of ankyrin-B+/- mouse heart, doubled amount of input lysate, compared with wild-type heart.
Assay [2] deals with InsP3R purified from bovine brain cerebellum (bovine, UniProt Q9TU34 1-2709, ^125I-labeled in the saturation binding; biotinylated with NHS-LC-biotin in the reconstitution). As to the kind of experiment: radioligand binding; saturation binding: increasing concentrations of ^125I-labeled protein with glutathione Sepharose-immobilized GST-ankyrin-B membrane-binding domain, 2 h at 25 °C; binding to GST beads subtracted; Scatchard analysis. As to conditions: both partners purified.

“Na/K ATPase (endogenous, mouse; isoform not told) (from UniProt Q8VDN2 1-1023) (natural protein)”: the loss of co-immunoprecipitation in ankyrin-B+/- heart against wild-type heart in assay [1] is more than 60%. Still for that read-out and setting: as for “inositol 1,4,5-trisphosphate receptor (endogenous, mouse) (from UniProt P11881 1-2749)”, the figure is more than 60%; as for “Na/Ca exchanger 1 (endogenous, mouse) (from UniProt P70414 33-970) (natural protein)”, more than 60%.

B1: GST-ankyrin-B membrane-binding domain (domain or fragment)
chain: KSDSNASFLRAARAGNLDKVVEYLKGGIDINTCNQNGLNALHLAAKEGHVGLVQELLGRGSSVDSATKKGNTALHIASLAGQAEVVKVLVKEGANINAQSQNGFTPLYMAAQENHIDVVKYLLENGANQSTATEDGFTPLAVALQQGHNQAVAILLENDTKGKVRLPALHIAARKDDTKSAALLLQNDHNADVQSKMMVNRTTESGFTPLHIAAHYGNVNVATLLLNRGAAVDFTARNGITPLHVASKRGNTNMVKLLLDRGGQIDAKTRDGLTPLHCAARSGHDQVVELLLERGAPLLARTKNGLSPLHMAAQGDHVECVKHLLQHKAPVDDVTLDYLTALHVAAHCGHYRVTKLLLDKRANPNARALNGFTPLHIACKKNRIKVMELLVKYGASIQAITESGLTPIHVAAFMGHLNIVLLLLQNGASPDVTNIRGETALHMAARAGQVEVVRCLLRNGALVDARAREEQTPLHIASRLGKTEIVQLLLQHMAHPDAATTNGYTPLHISAREGQVDVASVLLEAGAAHSLATKKGFTPLHVAAKYGSLDVAKLLLQRRAAADSAGKNGLTPLHVAAHYDNQKVALLLLEKGASPHATAKNGYTPLHIAAKKNQMQIASTLLNYGAETNIVTKQGVTPLHLASQEGHTDMVTLLLDKGANIHMSTKSGLTSLHLAAQEDKVNVADILTKHGADQDAHTKLGYTPLIVACHYGNVKMVNFLLKQGANVNAKTKNGYTPLHQAAQQGHTHIINVLLQHGAKPNATTANGNTALAIAKRLGYISVVDTLKVVTEEVTTTTTTITEKHKLNVPETMTEVLDVSDEEGDDTMTGDGGEYLRPEDLKELGDD
As usually defined, the Kd is the constant that tells how readily two partners part at equilibrium. Read a high Kd as weaker binding. Turning to B1, in assay [2], binding was characterised by a dissociation constant (Kd) of 3 nM.
